T1: recombinant human IL-23 (p19/p40 heterodimer) (human, UniProt Q9NPF7 20-189; P29460 23-328)
T1 sequence (looked up) 1: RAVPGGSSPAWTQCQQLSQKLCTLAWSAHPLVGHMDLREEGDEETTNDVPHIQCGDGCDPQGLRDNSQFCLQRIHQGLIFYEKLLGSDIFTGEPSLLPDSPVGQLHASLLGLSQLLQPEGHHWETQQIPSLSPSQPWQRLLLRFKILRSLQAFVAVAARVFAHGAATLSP
T1 sequence (looked up) 2: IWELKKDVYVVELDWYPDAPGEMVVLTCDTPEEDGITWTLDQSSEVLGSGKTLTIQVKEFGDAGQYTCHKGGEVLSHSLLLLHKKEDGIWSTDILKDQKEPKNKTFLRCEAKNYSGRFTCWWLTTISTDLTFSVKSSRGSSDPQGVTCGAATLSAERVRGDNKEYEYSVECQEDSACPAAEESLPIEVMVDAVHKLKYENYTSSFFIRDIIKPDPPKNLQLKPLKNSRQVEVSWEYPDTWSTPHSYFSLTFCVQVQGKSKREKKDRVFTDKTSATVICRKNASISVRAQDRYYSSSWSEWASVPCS

T2: human IL-12 protein (human, UniProt P29459 23-219; P29460 23-328)
T2 construct: Recombinant protein; also called hIL12; hIL-12
T2 sequence (looked up) 1: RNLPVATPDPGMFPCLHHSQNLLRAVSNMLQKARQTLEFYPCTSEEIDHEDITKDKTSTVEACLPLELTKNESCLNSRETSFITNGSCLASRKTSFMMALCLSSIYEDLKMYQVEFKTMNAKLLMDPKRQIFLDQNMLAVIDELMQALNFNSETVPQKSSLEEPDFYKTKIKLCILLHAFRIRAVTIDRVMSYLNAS
T2 sequence (looked up) 2: T1 sequence (looked up) 2

T3: human p40 subunit protein (human, UniProt P29460 23-328)
T3 construct: p40 subunit alone; also called hp40
T3 sequence (looked up): T1 sequence (looked up) 2

B1: Hu-5 18006B (antibody, IgG2b, V domains shown)
VH: QLQLQESGPGLVKPSETLSLTCTVSGGSISSSSFYWGWIRQPPGKGLEWIGSIYYSGSTYYNPSLKSRVTISVDTSKNQFSLKLSSVTAADTAVYFCARHGVRGVIPHFDYWGQGTLVTVSS
VL: QTVLTQEPSFSVSPGGTVTLTCGLNSGSVSTIYYPSWYQQTPGQAPRALIYSTNTRSSGVPDRFSGSILGNKAALTITGAQADDESDYYCVLFLGSGLVFGGGTKLTVL
notes: Purified from hybridoma
B2: Hu-2 18006B (antibody, V domains shown)
VH: QVQLVQSGAEVKKPGASVKVSCKASGYTFTTYGISWVRQAPGQGLEWMGWISAYNGNTKYAQKLQGRVTMTTDTSTSTAYMELRSLRSDDTAVYYCAREWRAFYYYGLDVWGQGTTVTVSS
VL: DIVMTQTPLSSPVTLGQPASISCRSSQSLEHSDGNTYLSWLQQRPNQPPRLLIYKVSNRFSGVPDRFSGSGAGTDFTLKISRVEAEDVGVYYCTQATQFPLTFGGGTKVEIK
notes: Purified from hybridoma (Trianni mice); also called H-2 1800B (mIgG1)
B3: Hu-6 18006B (purified from hybridoma) (antibody, V domains shown)
VH: QVQLVQSGAEVKKPGASVKVSCKTSGYTFTYYGISWVRQAPGQGLEWMGLISAYNGNTNYGQKVQGRVTMTTDTSTSTAYMELRSLRSDDTAVYYCVTENINWRDAFDIWGQGTMVTVSS
VL: EIVLTQSPDFQSVTPKEKVTITCRASQTIGSSLHWYQQKPDQSPKLLIKYASQSISGVPSRFSGSGSGTDFTLTINSLEAEDAAAYYCHQSSSLPYTFGQGTKLEIK
B4: Hu-4 18006B** (recombinant, hIgG4) (antibody, V domains shown)
VH: QVHLVQSGAEVKKPGASVKVSCKASGYTFSSYGINWVRQAPGQGLEWMGWISAYSGNTDYSQHLQGRVTMTTDTSTNTAYMELRSLRSDDTAVYYCARASANWYDYFDPWGQGTLVTVSS
VL: B3 VL with S31G, K49T, I55F, N76H, A85T, S93I
B5: Hu-4 18006B* (recombinant, mIgG2a) (antibody, V domains shown)
VH: B4 VH
VL: B3 VL with S31G, K49T, I55F, N76H, A85T, S93I
B6: Hu-6 18006B* (recombinant mIgG2a) (antibody, V domains shown)
VH: B3 VH
VL: B3 VL
B7: Hu-4 18006B (purified from hybridoma) (antibody, IgG2c, V domains shown)
VH: B4 VH
VL: B3 VL with S31G, K49T, I55F, N76H, A85T, S93I

Substitutions are numbered along the chain they refer to.

Broadly, the Kd is the concentration at which binding is half-saturated. In general, koff refers to the first-order rate constant of dissociation. A word on the kon: it is the rate constant with which the complex forms.

One assay has as its target T1, recombinant human IL-23 (p19/p40 …). Description: cell-based or functional assay.
For the molecule B1, the “IC50 pM, STAT3 activation in DB reporter cells” value (“IC50 pM, STAT3 activation” for short) was 226 pM and the “Top % of inhibition, STAT3 activation in DB reporter cells” value (from here on “Top % of inhibition, STAT3 activation”) was 99%.
In the case of B2, the “IC50 pM, STAT3 activation” value was 158 pM and the “Top % of inhibition, STAT3 activation” value was 97%.
For B3, the “IC50 pM, STAT3 activation” value was found to be 60.5 pM and the “Top % of inhibition, STAT3 activation” value stood at 99%.
For B4, the “IC50 pM, STAT3 activation” value amounted to 157 pM and the “Top % of inhibition, STAT3 activation” value stood at 100%.
For B5, in that order: 265 pM and 100%.
Turning to B6, the “IC50 pM, STAT3 activation” value amounted to 35.2 pM and the “Top % of inhibition, STAT3 activation” value was determined as 99%.
As for B7, the “IC50 pM, STAT3 activation” value was 168 pM and the “Top % of inhibition, STAT3 activation” value was found to be 99%.

In the next assay the target is T2, human IL-12 protein. The experiment in a line: ELISA; antigen coated directly on plate. The procedure:
(§1) The binding specificity of the disclosed anti-IL-23p19 antibodies were also assessed by ELISA. Briefly, biotinylated IL-23 were captured via streptavidin coated ELISA plates. Human p19/mouse p40, human IL-12 and human p40 subunit were directly coated to ELISA plates. Purified antibodies were then added to the plates followed by detection by goat-anti-mouse IgG-HRP (Jackson ImmunoResearch, catalog no: 115-036-071, LOT NO: 147271). After addition of ABTS substrate (Moss Inc., catalog no: ABTS-1000, LOT NO: 03086202), ELISA plates were read using an ELISA plate reader (Biotek). The controls depicted in FIG. 3: PC1 refers to a reference antibody (known to be a p19 specific antibody, Biointron, LOT NO:20180926A04); PC2 refers to a reference antibody (known to be a p40 specific antibody, Biointron, LOT NO: 20180925A07); PC3 refers to a reference antibody (MT155, known as a p19 specific antibody from Mabtech, catalog no: 3457-6-100, code: 3457-6-1000), the negative controls are human IgG4 (Dendritics, catalog no: DDXCHO4P-100, LOT NO: DDXCH04-028) and the mouse IgG2a (generated by Novarock Biotherapeutics).
(An ELISA detects its analyte on a solid surface through an enzyme-linked reagent.)
For B7, the binding result was “no binding”.

In the next assay the target is T3, human p40 subunit protein. The experiment in a line: ELISA; antigen coated directly on plate. The procedure: as §1
In the case of B7, the binding result is recorded as “no binding”.

In the next assay the target is T2, human IL-12 protein. Description: SPR (BIAcore); antibody captured on anti-Fc chip, antigen injected. The procedure: (§2) Binding of anti-IL-23p19-specific antibodies to IL-23 proteins was analyzed by Surface plasmon resonance (SPR) determined by BIAcore. Briefly, serial dilutions of the anti-IL-23p19 antibodies or the control antibodies were captured on an anti-mouse or human Fc chip (s) that were immobilized on the CM5 chip using amine coupling kit (GE Healthcare, Catalog NO: BR-1000-50, LOT NO: 2087295).
(§3) Next, serial dilutions of IL-23 recombinant protein, human p19/mouse p40 heterodimer protein, human IL-12 protein and human p40 subunit protein in the running buffer containing 10 mM HEPES, 150 mM NaCl, 3 mM EDTA, 0.005% Tween 20, pH 7.4, were injected at 50 μl/minute over immobilized antibody for 1 minute followed by 2 minutes dissociation. Each injection was followed by a regeneration step with a 60-second pulse of 10 mM Glycine-HCl, pH 1.7 buffer. Fitting of experimental data was done with BIAevaluation software (GE Healthcare), fit with a Langmuir 1:1 model to determine apparent binding.
In general terms: In SPR one partner is held on a chip, and binding of the other changes the refractive index at the surface.
For B1, the binding result is given as “no binding”.
B2: the binding result is reported as “no binding”.
Same read-out and setting: the entry for B4 is “no binding”; for B5 it is “no binding”.
The same measure, in the same setting: the result for B6 reads “no binding”.

The target of another assay is T3, human p40 subunit protein. The description is as above. The procedure:
as §2, §3
B1: the binding result is listed as “no binding”.
As to B2, the binding result was “no binding”.
Same read-out and setting: the result for B4 reads “no binding”; that for B5, “no binding”; that for B6, “no binding”.

The next assay concerns the target T1, recombinant human IL-23 (p19/p40 …). The experiment in a line: SPR (BIAcore 3000); captured antibody, hIL-23 0.156-40 nM, 1:1 global fit.
Take B4: the Kd came out at 0.0572 nM, the koff amounted to 0.000143 s⁻¹ and the kon was found to be 2.5e+06 M⁻¹ s⁻¹.

The target is the same in a further assay. Description: SPR (BIAcore 3000); antibody captured on anti-mouse IgG CM5 chip, hIL-23 0.156-40 nM, 1:1 global fit. The procedure:
To ensure accurate measurements of the KD and IC50 endpoints in binding and functional assays, the antibodies were purified from the hybridoma culture supernatants prior to testing. The binding kinetics of the disclosed anti-IL-23p19-specific antibodies to recombinant human IL-23 was determined by Surface plasmon resonance (SPR) using BIAcore 3000 system docked with a CM5 chip previously immobilized via amine coupling chemistry with anti-mouse IgG antibody (GE Cat No. BR-1008-38). Flow cell 1 remained unmodified to serve as a reference cell for subtraction of systematic instrument noise and drift. Fc2-1 detection was run with double blanking (Fc1 and blank analyte buffer). Antibody samples were diluted to 50 μg/mL in HBS-EP (GE, catalog no: BR1001-88) and injected at a flow rate of 10 uL/minute for 1 minute. Next, hIL-23 (R&D systems, catalog no: 1290-IL/CF) diluted to 0.156-40 nM was injected at 50 μL/minute for 2 minutes, followed by 10 minutes dissociation. Data were analyzed in BIAEvalution software (GE Healthcare) by 1:1 binding model with global fit to determine apparent binding kinetics.
As for B1, the Kd stood at 0.0662 nM, the koff amounted to 9.89e-05 s⁻¹ and the kon came out at 1.49e+06 M⁻¹ s⁻¹.
Consider B2, for which the Kd was 0.0416 nM, the koff was 6.54e-05 s⁻¹ and the kon came out at 1.57e+06 M⁻¹ s⁻¹.
In the case of B6, the Kd was 0.0384 nM, the koff is 0.000171 s⁻¹ and the kon came to 4.44e+06 M⁻¹ s⁻¹.

For the origin of these results see patent US20220332811A1 (NOVAROCK BIOTHERAPEUTICS, published 2022).
